Measurements published in US20250277031A1.
Read-outs that look alike come from different tables or passages of the source.

Columns and labels:
[1] = target: recombinant human CD47 (human) (UniProt Q08722); assay: ELISA, plate coated with recombinant human CD47, OD450
[2] = target: recombinant human CD47-Fc protein (ACROBiosystems, catalog number CD7-H52A5) (human) (UniProt Q08722); assay: blocking ELISA: plate coated with human CD47-Fc, 2 nM biotin-labelled SIRPα as the blocked ligand, falling OD450 curve; the sheet labels the half-maximal value EC50
Sequence of recombinant human CD47-Fc protein (ACROBiosystems, catalog number CD7-H52A5) (human) (Q08722 19-139 limits assumed): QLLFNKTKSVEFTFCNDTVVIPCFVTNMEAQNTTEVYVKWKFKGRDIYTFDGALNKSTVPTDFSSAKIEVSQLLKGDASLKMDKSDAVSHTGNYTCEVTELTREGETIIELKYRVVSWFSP

[3] = target: recombinant human CD47 (human) (UniProt Q08722); assay: SPR, Biacore X100, antibody captured on Protein A chip, CD47 as analyte
[4] = target: recombinant human CD47 (human) (UniProt Q08722); assay: as above; remark: listed apart in the source
[5] = target: recombinant human CD47-Fc protein (ACROBiosystems, catalog number CD7-H52A5) (human) (UniProt Q08722); assay: blocking ELISA: plate coated with human CD47-Fc, biotin-labelled SIRPα as the blocked ligand, falling OD450 curve; the sheet labels the half-maximal value EC50
[6] = target: recombinant human CD47 (human) (UniProt Q08722); assay: ELISA, plate coated with 1 µg/mL recombinant human CD47, OD450

Sequence of recombinant human CD47 (human) (Q08722 19-139 limits assumed): as above

EC50 [1]: 0.033 nM | IC50 [2]: 1.43 nM | Kd [3]: 0.857 nM | koff [3]: 0.00135 s⁻¹ | kon [3]: 1.57e+06 M⁻¹ s⁻¹ | Kd [4]: 1.16 nM | koff [4]: 0.00176 s⁻¹ | kon [4]: 1.52e+06 M⁻¹ s⁻¹ | IC50 [5]: 0.774 nM | EC50 [6]: 0.058 nM
B1: control CC-90002 (a patent sequence from WO2016109415) (antibody, from another filing, V domains shown)
VH: QMQLVQSGAEVKKTGSSVKVSCKASGFNIKDYYLHWVRQAPGQALEWMGWIDPDQGDTEYAQKFQDRVTITRDRSMSTAYMELSSLRSEDTAMYYCNAAYGSSSYPMDYWGQGTTVTV
VL: NIQMTQSPSAMSASVGDRVTITCKASQDIHRYLSWFQQKPGKVPKHLIYRANRLVSGVPSRFSGSGSGTEFTLTISSLQPEDFATYYCLQYDEFPYTFGGGTKVEIK
